What follows are sequences tested against FGFR1 (UniProt P11362) (assay: phosphorylation enrichment, bacterial display (enrichment ratio); higher = better substrate or ligand; peptides without Tyr show the background).
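For SH2 binding enrichment of the phosphorylated peptide, bacterial display in this document: peptide library displayed on the E. coli surface as eCPX fusions, selected cells deep-sequenced, score is each peptide's frequency after selection divided by its frequency in the input.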
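For phosphorylation enrichment, bacterial display in this document: 11-residue human phosphosite peptides and single-mutation variants displayed on the E. coli surface, counted by deep sequencing, each peptide's frequency after selection divided by its frequency in the unselected input library; frequency after pTyr selection over input frequency; kinase dosed for 20-30% of maximal phosphorylation in three min.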

Sequence of FGFR1 (P11362 whole entry, looked up, the tested form may be a part): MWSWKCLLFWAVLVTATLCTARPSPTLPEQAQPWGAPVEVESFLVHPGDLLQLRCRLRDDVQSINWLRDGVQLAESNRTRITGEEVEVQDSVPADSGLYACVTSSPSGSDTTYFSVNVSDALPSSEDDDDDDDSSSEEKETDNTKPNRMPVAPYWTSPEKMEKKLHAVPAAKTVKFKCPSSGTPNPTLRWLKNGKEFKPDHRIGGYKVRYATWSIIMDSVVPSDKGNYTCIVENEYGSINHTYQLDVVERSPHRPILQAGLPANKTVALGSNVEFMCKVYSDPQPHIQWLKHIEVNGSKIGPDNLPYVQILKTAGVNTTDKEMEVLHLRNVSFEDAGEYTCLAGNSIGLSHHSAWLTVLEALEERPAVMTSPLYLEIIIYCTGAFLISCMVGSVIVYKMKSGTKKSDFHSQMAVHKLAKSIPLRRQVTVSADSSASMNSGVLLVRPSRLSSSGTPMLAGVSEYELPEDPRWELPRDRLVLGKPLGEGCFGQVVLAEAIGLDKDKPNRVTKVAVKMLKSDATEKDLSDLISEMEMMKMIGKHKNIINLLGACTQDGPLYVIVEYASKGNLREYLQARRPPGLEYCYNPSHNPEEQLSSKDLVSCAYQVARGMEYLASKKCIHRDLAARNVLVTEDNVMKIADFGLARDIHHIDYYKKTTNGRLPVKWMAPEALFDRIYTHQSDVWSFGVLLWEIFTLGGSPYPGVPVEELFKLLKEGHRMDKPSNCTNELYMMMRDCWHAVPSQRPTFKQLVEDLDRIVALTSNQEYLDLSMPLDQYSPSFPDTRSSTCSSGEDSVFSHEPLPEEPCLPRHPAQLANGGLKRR

Sequence | phosphorylation enrichment
YLEKYYKFGSR [NNMT_Y25] | 0.524
TTEHIYGDKFF [UBA7_Y524_N527K] | 0.597
MDFRSYPHEFG [RBM10_Y44_R46H_YF] | 0.464
DVLPEYKLQAP [KCNH2_Y388] | 0.48
AFSLKYDQQTQ [SYTL4_Y366_E367D] | 0.539
IQVDAYFSPIH [ADSL_Y432] | 0.638
SVSVNYGDLVQ [GRAP_Y101_Q104L] | 0.565
NALVQYQEMEK [BBS4_Y395_A393V] | 0.562
SRGRQYQELPR [KCNH2_Y1009] | 0.4
TLNHQYDFTFH [CSNK1A1_Y292_D297H_YF] | 0.557
MHDKEYFSVHN [MET_Y1234_Y1230H_YF] | 1.4
VIIVLYFSLWK [SLC6A2_Y249_V245I] | 0.462
DALDNYVIRGV [PCCA_Y473] | 0.486
NLSVRYDSSLK [ABCC8_Y1353] | 0.446
SNYRAYATEPQ [TNNI3_Y29_H34Q] | 0.389
QGIPWYHSQSP [FOXF1_Y331_R330W] | 0.571
KTVQDYLKKFY [MMP8_Y36_E38K] | 0.428

Sequence | phosphorylation enrichment
AQRKLYRNVML [ZNF569_Y33] | 0.4
VEDQFYRVDCF [FHL1_Y208_C209R_YF] | 0.522
SLGKGYYDGGC [MC4R_Y35_S36Y] | 0.635
DVFRQYASLRG [GANAB_Y379_T383R] | 0.453
EAGKVYLKAPM [CBFB_Y96] | 0.433
GVKLTYGDAQN [SLC28A1_Y404] | 0.53
FAREGYSALPQ [SARS2_Y52_YF] | 0.471
QAINEYEKWLE [MAP9_Y603] | 1.12
NFATLHLKIYH [PDE6B_Y219_Y219H] | 0.423
PADCRYYTFPQ [GAMT_Y222_A224T] | 6
TGEDWYVLVRV [SF3B3_Y904_G908R] | 0.405
FCIDHYLGKEM [G6PD_Y202_R198C_YF] | 0.397
FRASFYRRGDR [LTK_Y677_YF] | 0.549
DPYHVYIKNHV [KCNE3_Y95_R99H] | 0.447
KGIQLYDTPFE [SHB_Y297_YF] | 0.511
ERFAFYRDSPR [FOXE3_Y108] | 0.474

The sequences below were run against c-Src SH2 (assay: SH2 binding enrichment of the phosphorylated peptide, bacterial display (enrichment ratio); higher = better substrate or ligand; peptides without Tyr show the background).

Sequence | SH2 binding enrichment
YLEKYYKFGSR [NNMT_Y25] | 0.523
TTEHIYGDKFF [UBA7_Y524_N527K] | 0.471
MDFRSYPHEFG [RBM10_Y44_R46H_YF] | 0.624
DVLPEYKLQAP [KCNH2_Y388] | 0.508
AFSLKYDQQTQ [SYTL4_Y366_E367D] | 0.555
IQVDAYFSPIH [ADSL_Y432] | 0.604
SVSVNYGDLVQ [GRAP_Y101_Q104L] | 0.479
NALVQYQEMEK [BBS4_Y395_A393V] | 4.65
SRGRQYQELPR [KCNH2_Y1009] | 1.29
TLNHQYDFTFH [CSNK1A1_Y292_D297H_YF] | 4.74
MHDKEYFSVHN [MET_Y1234_Y1230H_YF] | 0.683
VIIVLYFSLWK [SLC6A2_Y249_V245I] | 1.3
DALDNYVIRGV [PCCA_Y473] | 0.453
NLSVRYDSSLK [ABCC8_Y1353] | 0.587
SNYRAYATEPQ [TNNI3_Y29_H34Q] | 0.384
QGIPWYHSQSP [FOXF1_Y331_R330W] | 1.15
KTVQDYLKKFY [MMP8_Y36_E38K] | 0.438

Sequence | SH2 binding enrichment
AQRKLYRNVML [ZNF569_Y33] | 0.728
VEDQFYRVDCF [FHL1_Y208_C209R_YF] | 0.515
SLGKGYYDGGC [MC4R_Y35_S36Y] | 0.727
DVFRQYASLRG [GANAB_Y379_T383R] | 1.57
EAGKVYLKAPM [CBFB_Y96] | 0.503
GVKLTYGDAQN [SLC28A1_Y404] | 0.472
FAREGYSALPQ [SARS2_Y52_YF] | 0.583
QAINEYEKWLE [MAP9_Y603] | 0.655
NFATLHLKIYH [PDE6B_Y219_Y219H] | 0.885
PADCRYYTFPQ [GAMT_Y222_A224T] | 2.15
TGEDWYVLVRV [SF3B3_Y904_G908R] | 0.377
FCIDHYLGKEM [G6PD_Y202_R198C_YF] | 0.735
FRASFYRRGDR [LTK_Y677_YF] | 0.379
DPYHVYIKNHV [KCNE3_Y95_R99H] | 0.939
KGIQLYDTPFE [SHB_Y297_YF] | 2.76
ERFAFYRDSPR [FOXE3_Y108] | 0.522

These sequences were tested against SHP2-C SH2 in the same assay as above.

Sequence | SH2 binding enrichment
YLEKYYKFGSR [NNMT_Y25] | 0.604
TTEHIYGDKFF [UBA7_Y524_N527K] | 0.655
MDFRSYPHEFG [RBM10_Y44_R46H_YF] | 0.766
DVLPEYKLQAP [KCNH2_Y388] | 0.625
AFSLKYDQQTQ [SYTL4_Y366_E367D] | 0.64
IQVDAYFSPIH [ADSL_Y432] | 0.529
SVSVNYGDLVQ [GRAP_Y101_Q104L] | 0.695
NALVQYQEMEK [BBS4_Y395_A393V] | 0.745
SRGRQYQELPR [KCNH2_Y1009] | 0.565
TLNHQYDFTFH [CSNK1A1_Y292_D297H_YF] | 0.717
MHDKEYFSVHN [MET_Y1234_Y1230H_YF] | 0.834
VIIVLYFSLWK [SLC6A2_Y249_V245I] | 1.74
DALDNYVIRGV [PCCA_Y473] | 0.556
NLSVRYDSSLK [ABCC8_Y1353] | 0.863
SNYRAYATEPQ [TNNI3_Y29_H34Q] | 0.672
QGIPWYHSQSP [FOXF1_Y331_R330W] | 1.14
KTVQDYLKKFY [MMP8_Y36_E38K] | 0.606

Sequence | SH2 binding enrichment
AQRKLYRNVML [ZNF569_Y33] | 0.82
VEDQFYRVDCF [FHL1_Y208_C209R_YF] | 0.601
SLGKGYYDGGC [MC4R_Y35_S36Y] | 0.59
DVFRQYASLRG [GANAB_Y379_T383R] | 31
EAGKVYLKAPM [CBFB_Y96] | 0.609
GVKLTYGDAQN [SLC28A1_Y404] | 0.54
FAREGYSALPQ [SARS2_Y52_YF] | 0.85
QAINEYEKWLE [MAP9_Y603] | 0.882
NFATLHLKIYH [PDE6B_Y219_Y219H] | 0.953
PADCRYYTFPQ [GAMT_Y222_A224T] | 1.36
TGEDWYVLVRV [SF3B3_Y904_G908R] | 0.491
FCIDHYLGKEM [G6PD_Y202_R198C_YF] | 0.969
FRASFYRRGDR [LTK_Y677_YF] | 0.471
DPYHVYIKNHV [KCNE3_Y95_R99H] | 0.779
KGIQLYDTPFE [SHB_Y297_YF] | 1.19
ERFAFYRDSPR [FOXE3_Y108] | 0.751

These sequences were tested against Grb2 SH2 (UniProt P62993) in the same assay as above.
Sequence of Grb2 SH2 (P62993 whole entry, looked up): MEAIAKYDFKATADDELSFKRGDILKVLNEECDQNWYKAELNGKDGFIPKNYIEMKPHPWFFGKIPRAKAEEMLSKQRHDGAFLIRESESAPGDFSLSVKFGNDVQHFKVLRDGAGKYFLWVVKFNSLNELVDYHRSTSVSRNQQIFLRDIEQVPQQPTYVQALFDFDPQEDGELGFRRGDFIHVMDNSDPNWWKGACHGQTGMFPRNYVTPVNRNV

Sequence | SH2 binding enrichment
YLEKYYKFGSR [NNMT_Y25] | 0.9
TTEHIYGDKFF [UBA7_Y524_N527K] | 0.704
MDFRSYPHEFG [RBM10_Y44_R46H_YF] | 0.88
DVLPEYKLQAP [KCNH2_Y388] | 1.02
AFSLKYDQQTQ [SYTL4_Y366_E367D] | 0.824
IQVDAYFSPIH [ADSL_Y432] | 0.797
SVSVNYGDLVQ [GRAP_Y101_Q104L] | 0.824
NALVQYQEMEK [BBS4_Y395_A393V] | 1.04
SRGRQYQELPR [KCNH2_Y1009] | 0.925
TLNHQYDFTFH [CSNK1A1_Y292_D297H_YF] | 1.01
MHDKEYFSVHN [MET_Y1234_Y1230H_YF] | 1.12
VIIVLYFSLWK [SLC6A2_Y249_V245I] | 1.95
DALDNYVIRGV [PCCA_Y473] | 0.649
NLSVRYDSSLK [ABCC8_Y1353] | 0.887
SNYRAYATEPQ [TNNI3_Y29_H34Q] | 0.75
QGIPWYHSQSP [FOXF1_Y331_R330W] | 1.43
KTVQDYLKKFY [MMP8_Y36_E38K] | 1

Sequence | SH2 binding enrichment
AQRKLYRNVML [ZNF569_Y33] | 1.26
VEDQFYRVDCF [FHL1_Y208_C209R_YF] | 0.875
SLGKGYYDGGC [MC4R_Y35_S36Y] | 0.741
DVFRQYASLRG [GANAB_Y379_T383R] | 0.842
EAGKVYLKAPM [CBFB_Y96] | 0.956
GVKLTYGDAQN [SLC28A1_Y404] | 0.969
FAREGYSALPQ [SARS2_Y52_YF] | 0.914
QAINEYEKWLE [MAP9_Y603] | 0.707
NFATLHLKIYH [PDE6B_Y219_Y219H] | 0.954
PADCRYYTFPQ [GAMT_Y222_A224T] | 1.01
TGEDWYVLVRV [SF3B3_Y904_G908R] | 0.626
FCIDHYLGKEM [G6PD_Y202_R198C_YF] | 0.836
FRASFYRRGDR [LTK_Y677_YF] | 0.542
DPYHVYIKNHV [KCNE3_Y95_R99H] | 0.804
KGIQLYDTPFE [SHB_Y297_YF] | 1.3
ERFAFYRDSPR [FOXE3_Y108] | 0.774

Source: the supplement of paper PMC10065799, “High-throughput profiling of sequence recognition by tyrosine kinases and SH2 domains using bacterial peptide display” (eLife, 2023)
